# In US20110212094A1 (AbbVie / Abbott, published 2011):
# T1: Recombinant Human SOST (human, UniProt Q9BQB4 24-213)
# T1 construct: R&D reagent in Biacore; also called sclerostin; Human sclerostin (Abbott PR-1261069)
# T1 sequence (looked up): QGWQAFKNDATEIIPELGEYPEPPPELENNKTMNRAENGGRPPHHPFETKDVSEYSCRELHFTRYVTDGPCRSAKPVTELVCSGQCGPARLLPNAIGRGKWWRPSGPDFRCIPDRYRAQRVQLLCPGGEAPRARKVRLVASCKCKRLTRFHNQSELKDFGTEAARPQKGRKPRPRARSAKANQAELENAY
# Assays:
# Recombinant Human β-NGF [1] = biological target: T2, Recombinant Human β-NGF (human, UniProt P01138 122-239, limits assumed); experiment: Biacore SPR
# T2 construct: Bought reagent used in the Biacore analyses
# T2 sequence (P01138 122-239 limits assumed): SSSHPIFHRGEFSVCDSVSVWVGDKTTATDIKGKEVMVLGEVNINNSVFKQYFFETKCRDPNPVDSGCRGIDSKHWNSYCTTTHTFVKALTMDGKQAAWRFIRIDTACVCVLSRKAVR
# Description: (§1) The BIACORE assay (Biacore, Inc, Piscataway, N.J.) determines the affinity of antibodies or DVD-Ig with kinetic measurements of on-rate and off-rate constants. Binding of antibodies or DVD-Ig to a target antigen (for example, a purified recombinant target antigen) is determined by surface plasmon resonance-based measurements with a Biacore® 1000 or 3000 instrument (Biacore® AB, Uppsala, Sweden) using running HBS-EP (10 mM HEPES [pH 7.4], 150 mM NaCl, 3 mM EDTA, and 0.005% surfactant P20) at 25° C. All chemicals are obtained from Biacore® AB (Uppsala, Sweden) or otherwise from a different source as described in the text. For example, approximately 5000 RU of goat anti-mouse IgG, (Fcγ), fragment specific polyclonal antibody (Pierce Biotechnology Inc, Rockford, Ill.) diluted in 10 mM sodium acetate (pH 4.5) is directly immobilized across a CM5 research grade biosensor chip using a standard amine coupling kit according to manufacturer's instructions and procedures at 25 μg/ml. Unreacted moieties on the biosensor surface are blocked with ethanolamine. Modified carboxymethyl dextran surface in flowcell 2 and 4 is used as a reaction surface. Unmodified carboxymethyl dextran without goat anti-mouse IgG in flow cell 1 and 3 is used as the reference surface. For kinetic analysis, rate equations derived from the 1:1 Langmuir binding model are fitted simultaneously to association and dissociation phases of all eight injections (using global fit analysis) with the use of Biaevaluation 4.0.1 software. Purified antibodies or DVD-Ig are diluted in HEPES-buffered saline for capture across goat anti-mouse IgG specific reaction surfaces. Antibodies or DVD-Ig to be captured as a ligand (25 μg/ml) are injected over reaction matrices at a flow rate of 5 μl/min. The association and dissociation rate constants, kₘ (M⁻¹s⁻¹) and koff (s⁻¹) are determined under a continuous flow rate of 25 μl/min. Rate constants are derived by making kinetic binding measurements at different antigen concentrations ranging from 10-200 nM. The equilibrium dissociation constant (M) of the reaction between antibodies or DVD-Igs and the target antigen is then calculated from the kinetic rate constants by the following formula: KD=koff/kₒₙ. Binding is recorded as a function of time and kinetic rate constants are calculated.
# [2] = biological target: T3, Recombinant Human TNF-α/TNFSF1A (human, UniProt P01375 77-233); experiment: Biacore SPR
# T3 construct: Bought reagent for Biacore; also called huTNFα
# T3 sequence (P01375 77-233 limits assumed): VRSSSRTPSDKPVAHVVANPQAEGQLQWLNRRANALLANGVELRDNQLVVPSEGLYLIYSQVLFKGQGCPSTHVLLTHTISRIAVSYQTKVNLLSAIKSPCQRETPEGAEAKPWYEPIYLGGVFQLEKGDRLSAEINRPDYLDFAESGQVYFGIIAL
# Description: as §1
# [3] = biological target: T3, Recombinant Human TNF-α/TNFSF1A; experiment: cell-based or functional assay
# [4] = biological target: NGF (Neuroscreen-1 bioassay); experiment: cell-based or functional assay
# Recombinant Human SOST = biological target: T1, Recombinant Human SOST; experiment: Biacore SPR
# Description: as §1
# Recombinant Human β-NGF [5] = biological target: T2, Recombinant Human β-NGF; experiment: Biacore SPR; 25 C, HBS-EP pH 7.4; antibody captured on the chip, antigen 10-200 nM in flow
# Description: The BIACORE assay (Biacore, Inc, Piscataway, N.J.) determines the affinity of antibodies or DVD-Ig with kinetic measurements of on-rate and off-rate constants. Binding of antibodies or DVD-Ig to a target antigen (for example, a purified recombinant target antigen) is determined by surface plasmon resonance-based measurements with a Biacore® 1000 or 3000 instrument (Biacore® AB, Uppsala, Sweden) using running HBS-EP (10 mM HEPES [pH 7.4], 150 mM NaCl, 3 mM EDTA, and 0.005% surfactant P20) at 25° C. All chemicals are obtained from Biacore® AB (Uppsala, Sweden) or otherwise from a different source as described in the text. […] The association and dissociation rate constants, kₘ (M⁻¹s⁻¹) and koff (s⁻¹) are determined under a continuous flow rate of 25 μl/min. […] The equilibrium dissociation constant (M) of the reaction between antibodies or DVD-Igs and the target antigen is then calculated from the kinetic rate constants by the following formula: KD=koff/kₒₙ. Binding is recorded as a function of time and kinetic rate constants are calculated.
Binder,Kd (Recombinant Human β-NGF [1]) [nM],koff (Recombinant Human β-NGF [1]) [s⁻¹],kon (Recombinant Human β-NGF [1]) [M⁻¹ s⁻¹],Kd [2] [nM],koff [2] [s⁻¹],kon [2] [M⁻¹ s⁻¹],C-terminal VD TNFα Neutralization Assay EC50 nM (L929 cells) [3] [nM],"N-Terminal VD NGF Inhibition Assay EC50 pM (ERK1/2 phosphorylation, Neuroscreen-1 cells) [4] [pM]",Kd (Recombinant Human SOST) [nM],koff (Recombinant Human SOST) [s⁻¹],kon (Recombinant Human SOST) [M⁻¹ s⁻¹],N-terminal VD TNFα Neutralization Assay EC50 nM (L929 cells) [3] [nM],Kd (Recombinant Human β-NGF [5]) [nM],"NGF Inhibition Assay EC50 pM (ERK1/2 phosphorylation, Neuroscreen-1 cells) [4] [pM]"
"DVD1233 (bispecific antibody, human IgG1, kappa, constant regions from vectors V1/V2; also called DVD1233H; DVD1233L) heavy: not shown light: DIQMTQSPSSLSASVGDRVTITCRASQSISNNLNWYQQKPGKAPKLLIYYTSRFHSGVPSRFSGSGSGTDFTFTISSLQPEDIATYYCQQEHTLPYTFGQGTKLEIKRTVAAPDIVMTQSHKFMSTTVGDRVSITCKASQAVSSAVAWYQQKPGQSPKLLIYWASTRHTGVPDRFTGSGSVTDFTLTIHNLQAEDLALYYCQQHYSTPFTFGSGTKLEIKRTVAAPSVFIFPPSDEQLKSGTASVVCLLNNFYPREAKVQWKVDNALQSGNSQESVTEQDSKDSTYSLSSTLTLSKADYEKHKVYACEVTHQGLSSPVTKSFNRGEC",0.0217,1.82e-05,840000,0.115,2.82e-05,244000,42.4,62,,,,,,
"DVD1226 (bispecific antibody, human IgG1, kappa, constant regions from vectors V1/V2; also called DVD1226H; DVD1226L) heavy: not shown light: DIVMTQSHKFMSTTVGDRVSITCKASQAVSSAVAWYQQKPGQSPKLLIYWASTRHTGVPDRFTGSGSVTDFTLTIHNLQAEDLALYYCQQHYSTPFTFGSGTKLEIKRTVAAPDVQMIQSPSSLSASLGDIVTMTCQASQGTSINLNWFQQKPGKAPKLLIYGSSNLEDGVPSRFSGSRYGTDFTLTISSLEDEDLATYFCLQHSYLPYTFGGGTKLEIKRTVAAPSVFIFPPSDEQLKSGTASVVCLLNNFYPREAKVQWKVDNALQSGNSQESVTEQDSKDSTYSLSSTLTLSKADYEKHKVYACEVTHQGLSSPVTKSFNRGEC",,,,0.0288,0.000116,4.02e+06,,,2.71,0.000199,73400,0.0409,,
"AB020 (antibody, V domains shown, Parent anti-NGF antibody; also called NGF; AB020VH) VH: QVQLQESGPGLVKPSETLSLTCTVSGFSLIGYDLNWIRQPPGKGLEWIGIIWGDGTTDYNSAVKSRVTISKDTSKNQFSLKLSSVTAADTAVYYCARGGYWYATSYYFDYWGQGTLVTVSS VL: DIQMTQSPSSLSASVGDRVTITCRASQSISNNLNWYQQKPGKAPKLLIYYTSRFHSGVPSRFSGSGSGTDFTFTISSLQPEDIATYYCQQEHTLPYTFGQGTKLEIKR",,4.08e-06,606000,,,,,,,,,,0.00673,53
"DVD1251 (bispecific antibody, human IgG1, kappa, constant regions from vectors V1/V2; also called DVD1251H; DVD1251L) heavy: not shown light: DIQMTQSPSSLSASVGDRVTITCRASQSISNNLNWYQQKPGKAPKLLIYYTSRFHSGVPSRFSGSGSGTDFTFTISSLQPEDIATYYCQQEHTLPYTFGQGTKLEIKRTVAAPDIQMTQSPSSLSASVGDRVTITCRASQGIRIDLGWYQQKPGKAPKRLIYAASTLQSGVPSRFSGSGSGTEFIFTISSLQPEDFASYYCLQHKSYPLTFGGGTKVEIKRTVAAPSVFIFPPSDEQLKSGTASVVCLLNNFYPREAKVQWKVDNALQSGNSQESVTEQDSKDSTYSLSSTLTLSKADYEKHKVYACEVTHQGLSSPVTKSFNRGEC",0.0139,1.17e-05,842000,0.0894,5.73e-05,641000,8.02,95,,,,,,
